This passage reports stoichiometry N results from paper PMC5943054.

By stoichiometry N is commonly meant a count of units in the complex or per binding partner.

The assay has as its target TgPLP1 MACPF domain (residues 462 to 809, N720Q/N744Q), trypsinized in situ (TMH2 cut away) (Toxoplasma gondii) (UniProt V5BCL0). Description: crystal structure; second crystal form of the trypsinized MACPF domain, about 5 Å (5.0 in text, 5.11 in Table 1); 0.1 M Hepes pH 7.5, 10% alcohol mixture, 15% PEG-1000, 15% PEG-3350, 15% MPD; ring assembly, rigid-body refinement only.

For the substance “TgPLP1 MACPF domain (residues 462 to 809, N720Q/N744Q), trypsinized in situ (TMH2 cut away) (from UniProt V5BCL0 462-809) (domain or fragment)”, the stoichiometry N worked out at 6.
